# Measured values reported in IntAct's records for PubMed 23594738.
# B1: Protein lin-28 homolog A (Mus musculus), Q8K3Y3 (parent)
# chain: MGSVSNQQFAGGCAKAAEKAPEEAPPDAARAADEPQLLHGAGICKWFNVRMGFGFLSMTARAGVALDPPVDVFVHQSKLHMEGFRSLKEGEAVEFTFKKSAKGLESIRVTGPGGVFCIGSERRPKGKNMQKRRSKGDRCYNCGGLDHHAKECKLPPQPKKCHFCQSINHMVASCPLKAQQGPSSQGKPAYFREEEEEIHSPALLPEAQN
# partner: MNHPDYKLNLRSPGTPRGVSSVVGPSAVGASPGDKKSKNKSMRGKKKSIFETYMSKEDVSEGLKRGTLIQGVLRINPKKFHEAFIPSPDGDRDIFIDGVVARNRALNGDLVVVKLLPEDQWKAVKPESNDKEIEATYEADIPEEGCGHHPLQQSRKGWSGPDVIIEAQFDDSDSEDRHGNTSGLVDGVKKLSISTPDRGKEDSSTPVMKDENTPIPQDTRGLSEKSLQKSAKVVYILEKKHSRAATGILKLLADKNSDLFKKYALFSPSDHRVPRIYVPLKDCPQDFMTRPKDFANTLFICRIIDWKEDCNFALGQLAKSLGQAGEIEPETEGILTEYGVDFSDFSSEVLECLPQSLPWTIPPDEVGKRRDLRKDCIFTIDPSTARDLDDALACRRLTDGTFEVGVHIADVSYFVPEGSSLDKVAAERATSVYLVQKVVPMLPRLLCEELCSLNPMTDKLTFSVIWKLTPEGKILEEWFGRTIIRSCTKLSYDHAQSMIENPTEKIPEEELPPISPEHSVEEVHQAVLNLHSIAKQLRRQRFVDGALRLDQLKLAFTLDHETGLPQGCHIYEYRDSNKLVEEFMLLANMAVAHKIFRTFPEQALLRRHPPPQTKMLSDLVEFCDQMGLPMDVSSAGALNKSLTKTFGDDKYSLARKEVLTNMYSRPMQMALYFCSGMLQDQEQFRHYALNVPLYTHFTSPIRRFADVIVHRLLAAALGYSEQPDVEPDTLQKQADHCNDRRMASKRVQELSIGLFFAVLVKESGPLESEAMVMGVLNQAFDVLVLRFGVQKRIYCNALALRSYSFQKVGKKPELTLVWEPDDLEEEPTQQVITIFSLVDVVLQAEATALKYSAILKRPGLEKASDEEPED
# Variants of: B1
# Settings: with di3l2_mouse Dis3l2, Q8CI75
row,effect of a mutation on the interaction,Variant
1,decreasing interaction strength,W46A
